{
  "source": "patent US20080301824A1",
  "about": "(CEDARS SINAI MEDICAL CENTER, published 2008)",
  "binders": {"B1": {"name": "HA-tagged truncated parkin p294-385 (enzyme, UniProt O60260 294-385, looked up, not shown: small tags and cut ends)", "chain": "PNSLIKELHHFRILGEEQYNRYQQYGAEECVLQMGGVLCPRPGCGAGLLPEPDQRKVTCEGGNGLGCGFAFCRECKEAYHEGECSAVFEASG", "notes": "range 294-385"}, "B2": {"name": "endogenous synaptotagmin 1 of PC12 cells (other, UniProt P21707 1-421, looked up)", "chain": "MVSASHPEALAAPVTTVATLVPHNATEPASPGEGKEDAFSKLKQKFMNELHKIPLPPWALIAIAIVAVLLVVTCCFCVCKKCLFKKKNKKKGKEKGGKNAINMKDVKDLGKTMKDQALKDDDAETGLTDGEEKEEPKEEEKLGKLQYSLDYDFQNNQLLVGIIQAAELPALDMGGTSDPYVKVFLLPDKKKKFETKVHRKTLNPVFNEQFTFKVPYSELGGKTLVMAVYDFDRFSKHDIIGEFKVPMNTVDFGHVTEEWRDLQSAEKEEQEKLGDICFSLRYVPTAGKLTVVILEAKNLKKMDVGGLSDPYVKIHLMQNGKRLKKKKTTIKKNTLNPYYNESFSFEVPFEQIQKVQVVVTVLDYDKIGKNDAIGKVFVGYNSTGAELRHWSDMLANPRRPIAQWHTLQVEEEVDAMLAVKK", "notes": "also called syt1; endogenous syt1"}, "B3": {"name": "GAL4 activation domain-MP23a fusion (partial clone of human synapsin-like protein, SLP, in pGAD10) (other, not shown: large carriers)", "chain": "SFSSSPPPGPPRIAAAAFSSPGRCGCGCPCHLLTAEPPTQDGGRLSLGPEQNLGPHPQKPGCKRAAPTYESCIKFPTRLRFIRLEVEQHHLVDIVAVTTKTGKTEATPHGMRLMNELLQPGCQGSEEKPLRPCFLIISYA", "notes": "also called SLP (MP23a)"}, "B4": {"name": "HA-tagged truncated parkin p294-465 (enzyme, UniProt O60260 294-465, looked up, not shown: small tags and cut ends)", "chain": "PNSLIKELHHFRILGEEQYNRYQQYGAEECVLQMGGVLCPRPGCGAGLLPEPDQRKVTCEGGNGLGCGFAFCRECKEAYHEGECSAVFEASGTTTQAYRVDERAAEQARWEAASKETIKKTTKPCPRCHVPVEKNGGCMHMKCPQPQCRLEWCWNCGCEWNRVCMGDHWFDV"}, "B5": {"name": "endogenous synaptotagmin XI of human brain (other)", "chain": "MAEITNIRPSFDVSPVVAGLIGASVLVVCVSVTVFVWSCCHQQAEKKHKNPPYKFIHMLKGISIYPETLSNKKKIIKVRRDKDGPGREGGRRNLLVDAAEAGLLSRDKDPRGPSSGSCIDQLPIKMDYGEELRSPITSLTPGESKTTSPSSPEEDVMLGSLTFSVDYNFPKKALVVTIQEAHGLPVMDDQTQGSDPYIKMTILPDKRHRVKTRVLRKTLDPVFDETFTFYVIPYSQLQDLVLHFLVLSFDRFSRDDVIGEVMVPLAGVDPSTGKVQLTRDIIKRNIQKCISRGELQVSLSYQPVAQRMTVVVLKARHLPKMDITGLSGNPYVKVNVYYGRKRIAKKKTHVKKCTLNPIFNESFIYDIPTDLLPDISIEFLVIDFDRTTKNEVVGRLILGAHSVTASGAEHWREVCESPRKPVAKWHSLSEY", "notes": "Endogenous protein; also called endogenous sytXI; sytXI protein band"}, "B6": {"name": "full length synapsin-like protein (SLP), GFP fusion (other)", "chain": "MAQHIQLPGVKALVYVCFTAVLGHSVGWHRGHFGQHGLGRGAVRTRLWIRPGHATFLGQRRAGHQCRFPGSRRRQLLKEPKPSPAAPSSFSSSPPPGPPRIAAAAFSSPGRCGCGCPCHLLTAEPPTQDGGRLSLGPEQNLGPHPQKPGCKRAAPTYESCIKFPTRLRFIRLEVEQHHLVDIVAVTTKTGKTEATPHGMRLMNELLQPGCQGSEEKPLRPCFLIISYA", "notes": "the construct is inferred; also called the full length protein; not shown: green fluorescent protein (GFP)"}, "B7": {"name": "HA-tagged truncated parkin p1-203 (enzyme, UniProt O60260 1-203, looked up, not shown: small tags and cut ends)", "chain": "MIVFVRFNSSHGFPVEVDSDTSIFQLKEVVAKRQGVPADQLRVIFAGKELRNDWTVQNCDLDQQSIVHIVQRPWRKGQEMNATGGDDPRNAAGGCEREPQSLTRVDLSSSVLPGDSVGLAVILHTDSRKDSPPAGSPAGRSIYNSFYVYCKGPCQRVQPGKLRVQCSTCRQATLTLTQGPSCWDDVLIPNRMSGECQSPHCPG"}},
  "key": {"[1]": {"molecular_target": "T1, GFP-syt11 (GFP-tagged full-length human synaptotagmin XI) (human, UniProt P42212 1-238 = GFP)", "T1 construct": "also called GFP-sytXI; GFP-sytxI", "assay": "co-IP with anti-HA agarose from HEK293 cells, anti-GFP blot", "experimental": "To determine which domain of parkin binds to synaptotagmin, several truncated parkins tagged with the HA epitope were constructed (FIG. 3A). […] Each truncated construct was coexpressed with GFP-sytxI. After 24 h, protein extracts were immunoprecipitated with rat anti-HA-conjugated agarose followed by western blot detection with anti-GFP antibody."}, "[2]": {"molecular_target": "T2, endogenous parkin of PC12 cells (UniProt Q9JK66 1-465)", "T2 construct": "also called 50 kDa parkin band", "T2 sequence (looked up)": "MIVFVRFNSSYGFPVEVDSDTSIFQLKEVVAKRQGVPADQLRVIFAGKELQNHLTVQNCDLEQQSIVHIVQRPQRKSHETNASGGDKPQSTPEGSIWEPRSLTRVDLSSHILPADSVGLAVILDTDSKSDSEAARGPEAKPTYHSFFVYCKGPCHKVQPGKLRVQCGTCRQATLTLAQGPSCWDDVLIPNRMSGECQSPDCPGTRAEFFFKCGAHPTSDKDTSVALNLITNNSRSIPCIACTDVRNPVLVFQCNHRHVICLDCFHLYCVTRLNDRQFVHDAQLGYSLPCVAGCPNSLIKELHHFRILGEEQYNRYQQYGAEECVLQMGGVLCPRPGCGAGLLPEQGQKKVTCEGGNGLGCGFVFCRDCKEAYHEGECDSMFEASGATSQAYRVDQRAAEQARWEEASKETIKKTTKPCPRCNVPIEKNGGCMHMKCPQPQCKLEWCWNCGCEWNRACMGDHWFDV", "assay": "co-IP with mouse anti-syt1 from PC12 extracts", "description": "PC12 cells were grown in DMEM containing 10% heat-inactivated serum, 5% fetal bovine serum, and penicillin/streptomycin in a 37° C. incubator with 10% CO₂. Media were changed every 3 days. PC12 cells were grown for 48 hours, and proteins were extracted in co-ip buffer (50 mM Tris-HCl, pH 7.5, 0.2% Triton X-100, 150 mM NaCl, and one protease inhibitor pellet (Roche) per 10 ml buffer). Protein extracts were precleared with mouse or rabbit IgG conjugated agarose and incubated with the respective antibodies overnight in the cold room. The primary antibodies were pulled down with anti-mouse or anti-rabbit IgG conjugate agarose for two hours. The final pellets were washed 7 times with co-ip buffer, and the coprecipitates were eluted from the secondary antibody-conjugated agarose with SDS-PAGE buffer. Co-ip products were immunoblotted with either anti-parkin or anti-syt antibodies."}, "[3]": {"molecular_target": "T3, GAL4 binding domain-Hrs fusion encoded by pGBT9-Hrs (hepatocyte growth factor regulated kinase substrate) (UniProt P04386 1-147; O14964 1-777, limits assumed)", "T3 construct": "Unrelated bait control", "assay": "yeast two-hybrid filter assay", "experimental": "(§1) As previously described (Shibata et al., Hum. Mol. Genet. 9:1303-1313 (2000) and Scoles et al., Nat. Genet. 18:354-359 (1998)), the bait plasmid was cotransformed in yeast strain Y190 and grown on synthetic media without leucine, tryptophan, and histidine, and with 25 mM 3-amino-1,2,4-triazole and 2% glucose. The Y190 strain allows for nutritional selection of the HIS3 gene that allows growth in media lacking histidine and color selection using the LacZ gene encoding β-galactosidase. The β-galactosidase reporter was assayed on stamped nitrocellulose filters by incubating freeze-fractured colonies in Z-buffer (60 mM Na₂HPO₄, 40 mM NaH₂PO₄, 10 mM KCl, 1 mM MgSO₄, pH 7.0, 0.03 mM β-mercaptoethanol, and 2.5 μM X-gal) at 37° C. for 15 min to 8 hr. Positive clones were restreaked on synthetic media without leucine or tryptophan, and retested for β-galactosidase activity, and then pGAD10. “prey” plasmids were isolated."}, "[4]": {"molecular_target": "T4, GAL4 binding domain alone (pGBT9 vector control) (UniProt P04386 1-147)", "T4 construct": "Empty bait vector control; also called negative control vector pGBT9", "assay": "yeast two-hybrid filter assay", "experimental": "as §1"}, "[5]": {"molecular_target": "T5, GAL4 binding domain-NF2 fusion encoded by pGBT9-NF2 (schwannomin tumor suppressor) (UniProt P04386 1-147; P35240 1-595, limits assumed)", "T5 construct": "also called pGBT9-NF1", "assay": "yeast two-hybrid filter assay", "experimental": "as §1"}, "[6]": {"molecular_target": "GAL4 binding domain-parkin(1-465) fusion encoded by pGBT9-parkin(1-465) (UniProt P04386 1-147; O60260 1-465)", "assay": "cell-based or functional assay"}, "[7]": {"molecular_target": "endogenous parkin of human cerebral cortex (human, UniProt O60260 1-465, limits assumed)", "assay": "co-IP from human cerebral cortex extract", "description": "To determine whether parkin interacted with endogenous sytXI, protein extract from human cerebral cortex was immunoprecipitated with the anti-parka antibody. For co-immunoprecipitation of human brain extracts, a 1.4 g sample of human cerebral cortex was chopped into small pieces and resuspended in 7 ml of cold lysis buffer (100 mM Tris-HCl, pH 7.5, 150 mM NaCl, 1% Triton X-100, 0.05% SDS, 0.05% deoxycholic acid, and 1 protease inhibitor pellet/10 ml buffer). The cell suspension was homogenized by a glass homogenizer. Protein lysate was aliquoted into 1 ml aliquots and microfuged at top speed in the cold room. Protein extracts were precleared with rabbit IgG conjugated agarose and protein A conjugated agarose for 3 h at 4° C., and the precleared lysate was incubated with rabbit anti-parkA or mouse anti-sytXI antibody overnight in the cold room. The primary antibodies were pulled down with protein A conjugated agarose for 4 h at 4° C. The final pellets were washed five times with co-ip buffer, and the coprecipitates were eluted from the secondary antibody-conjugated agarose with SDS-PAGE buffer."}, "[8]": {"molecular_target": "T6, hemaglutinin-parkin (HA-parkin), full-length wild type (UniProt O60260 1-465)", "T6 construct": "also called pCMV-HA-parkin", "assay": "co-IP"}},
  "data": [
    {"binder": "B1", "values": [
      {"measurement": "binding result", "setting": "[1]", "result": "no binding"}
    ]},
    {"binder": "B2", "values": [
      {"measurement": "binding result", "setting": "[2]", "result": "binds"}
    ]},
    {"binder": "B3", "values": [
      {"measurement": "binding result", "setting": "[3]", "result": "no binding"},
      {"measurement": "binding result", "setting": "[4]", "result": "no binding"},
      {"measurement": "binding result", "setting": "[5]", "result": "no binding"},
      {"measurement": "β-galactosidase activity in yeast two-hybrid liquid assay, against negative control vector pGBT9", "setting": "[6]", "result": "~30", "unit": "fold"}
    ]},
    {"binder": "B4", "values": [
      {"measurement": "binding result", "setting": "[1]", "result": "no binding"}
    ]},
    {"binder": "B5", "values": [
      {"measurement": "binding result", "setting": "[7]", "result": "binds"}
    ]},
    {"binder": "B6", "values": [
      {"measurement": "binding result", "setting": "[8]", "result": "binds"}
    ]},
    {"binder": "B7", "values": [
      {"measurement": "binding result", "setting": "[1]", "result": "no binding"}
    ]}
  ]
}
